One assay has as its target T1, Rabbit SLIT2-N (rabbit, UniProt G1TMD3 31-1121).
T1 construct: domain: SLIT2-N; d2-labelled in the HTRF assay
T1 sequence: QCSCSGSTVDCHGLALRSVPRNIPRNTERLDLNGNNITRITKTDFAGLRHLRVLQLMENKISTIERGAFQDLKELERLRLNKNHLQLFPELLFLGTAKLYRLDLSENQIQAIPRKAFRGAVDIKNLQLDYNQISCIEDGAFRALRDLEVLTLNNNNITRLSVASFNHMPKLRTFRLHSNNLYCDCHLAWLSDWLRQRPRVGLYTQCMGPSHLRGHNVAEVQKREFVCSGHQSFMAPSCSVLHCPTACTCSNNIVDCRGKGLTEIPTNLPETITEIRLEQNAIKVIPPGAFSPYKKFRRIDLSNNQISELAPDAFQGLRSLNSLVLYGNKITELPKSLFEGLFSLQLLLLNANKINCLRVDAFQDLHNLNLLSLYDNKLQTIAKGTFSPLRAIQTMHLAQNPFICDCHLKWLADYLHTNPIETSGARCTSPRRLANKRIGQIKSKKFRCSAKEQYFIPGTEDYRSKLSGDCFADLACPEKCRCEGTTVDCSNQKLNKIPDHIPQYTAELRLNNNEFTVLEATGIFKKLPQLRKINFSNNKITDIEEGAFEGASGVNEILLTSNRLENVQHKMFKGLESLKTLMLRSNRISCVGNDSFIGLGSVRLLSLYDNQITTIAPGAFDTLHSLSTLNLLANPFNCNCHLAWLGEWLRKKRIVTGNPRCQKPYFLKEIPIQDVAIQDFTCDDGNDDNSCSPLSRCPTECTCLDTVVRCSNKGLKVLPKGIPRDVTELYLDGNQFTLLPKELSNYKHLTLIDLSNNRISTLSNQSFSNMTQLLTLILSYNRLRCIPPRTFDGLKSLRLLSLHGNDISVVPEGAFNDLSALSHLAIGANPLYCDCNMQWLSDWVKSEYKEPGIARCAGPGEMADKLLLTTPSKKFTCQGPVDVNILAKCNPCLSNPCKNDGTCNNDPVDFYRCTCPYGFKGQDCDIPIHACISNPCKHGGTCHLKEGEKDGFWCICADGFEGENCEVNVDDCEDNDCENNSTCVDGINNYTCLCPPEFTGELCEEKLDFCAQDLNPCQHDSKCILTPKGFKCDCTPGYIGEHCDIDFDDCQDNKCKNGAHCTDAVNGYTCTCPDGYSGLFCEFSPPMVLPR
As to the kind of experiment: HTRF competition: d2-labelled rabbit SLIT2-N binding to human ROBO2 on HEK293 cells; geometric mean, n=3. As for the experimental part:
(§1) After incubation, fluorescence at 665 nm and 620 nm was measured on an Envision multilabel plate reader. The HTRF Ratio was calculated as follows: fluorescence at 665 nm/fluorescence at 620 nm×10,000. […] The IC₅₀ for each SLITx-N was determined using an 11-point, 4-fold dilution series with a top concentration of 4000 nM.
In general terms: In TR-FRET formats the signal depends on donor and acceptor labels being close together.

In assay [1] the target is T2, Human SLIT2-N (human, UniProt O94813 31-1121, limits assumed).
T2 construct: domain: SLIT2-N (N terminal fragment); Soluble analyte in SPR, d2-labelled in HTRF, overexpressed on HEK293 cells in flow cytometry; also called human SLIT2-N (N terminal fragment)
T2 sequence (looked up): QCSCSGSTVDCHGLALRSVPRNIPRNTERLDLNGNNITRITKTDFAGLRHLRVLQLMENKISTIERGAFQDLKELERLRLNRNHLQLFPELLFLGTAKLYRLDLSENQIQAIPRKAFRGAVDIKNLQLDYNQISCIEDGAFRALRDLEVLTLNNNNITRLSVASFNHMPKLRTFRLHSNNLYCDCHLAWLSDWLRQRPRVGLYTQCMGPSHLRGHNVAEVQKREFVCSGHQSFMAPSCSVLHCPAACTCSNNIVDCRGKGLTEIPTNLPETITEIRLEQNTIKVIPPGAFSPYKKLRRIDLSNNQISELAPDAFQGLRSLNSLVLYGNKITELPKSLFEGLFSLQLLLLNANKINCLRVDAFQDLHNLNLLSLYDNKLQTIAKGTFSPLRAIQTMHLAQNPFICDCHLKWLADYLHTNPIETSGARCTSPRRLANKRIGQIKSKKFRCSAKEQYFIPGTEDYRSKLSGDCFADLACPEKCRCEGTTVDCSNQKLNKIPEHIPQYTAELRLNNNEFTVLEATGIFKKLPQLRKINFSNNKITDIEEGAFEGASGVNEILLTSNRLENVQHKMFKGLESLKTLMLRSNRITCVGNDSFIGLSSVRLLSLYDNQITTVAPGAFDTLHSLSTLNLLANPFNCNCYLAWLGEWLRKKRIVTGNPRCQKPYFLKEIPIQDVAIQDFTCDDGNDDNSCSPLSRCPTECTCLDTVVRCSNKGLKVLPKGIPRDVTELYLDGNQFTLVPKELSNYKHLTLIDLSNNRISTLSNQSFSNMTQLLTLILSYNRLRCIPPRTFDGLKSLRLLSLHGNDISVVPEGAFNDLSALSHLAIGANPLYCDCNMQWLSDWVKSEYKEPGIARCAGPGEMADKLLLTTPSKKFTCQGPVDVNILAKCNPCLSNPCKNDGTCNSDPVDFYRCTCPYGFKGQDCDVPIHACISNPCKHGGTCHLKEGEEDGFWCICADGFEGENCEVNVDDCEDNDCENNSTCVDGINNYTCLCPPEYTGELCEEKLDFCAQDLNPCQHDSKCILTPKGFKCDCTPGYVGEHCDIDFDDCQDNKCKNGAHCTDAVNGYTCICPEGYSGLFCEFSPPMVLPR
As to the kind of experiment: HTRF competition: d2-labelled human SLIT2-N binding to human ROBO2 on HEK293 cells; geometric mean, n=4; Table 2 species panel; geometric mean, n=4. As for the experimental part: as §1

Assay [2] deals with T2, Human SLIT2-N. As to the kind of experiment: flow cytometry, AF647-labelled ROBO2-Fc 2.2 on HEK293 cells overexpressing human SLIT2-N (FIG. 5). As for the experimental part:
After incubation, 150 μL of FACS buffer was added per well to wash the cells. After washing, cells were resuspended in buffer for data acquisition on a Fortessa Flow Cytometer.

Broadly, the IC50 is the concentration needed to halve the response being measured. A high value points to weaker potency in that assay. Broadly, the EC50 is the midpoint of the concentration-response curve.

B1: ROBO2-Fc 2.2 (Fc fusion)
chain: SRLRQEDFPPRIVEHPSDVIVSKGEPTTLNCKAEGRPTPTIEWYKDGERVETDKDDPRSHRMLLPSGSLFFLRIVHGRRSKPDEGSYVCVARNYLGEAVSRNASLEVALLRDDFRQNPTDVVVAAGEPAILECQPPRGHPEPTIYWKKDKVRIDDKEERISIRGGKLMISNTRKSDAGMYTCVGTNMVGERDSDPAELTVFERGGSGGSEPKSSDKTHTCPPCPAPEAAGAPSVFLFPPKPKDTLMISRTPEVTCVVVDVSHEDPEVKFNWYVDGVEVHNAKTKPREEQYNSTYRVVSVLTVLHQDWLNGKEYKCKVSNKALPAPIEKTISKAKGQPREPQVYTLPPSREEMTKNQVSLTCLVKGFYPSDIAVEWESNGQPENNYKTTPPVLDSDGSFFLYSKLTVDKSRWQQGNVFSCSVMHEALHNHYTQKSLSLSPG
notes: Labelled with Alexa Fluor 647 in the flow cytometry assay; also called ROBO-Fc 2.2; ROBO2-Fc 2.2-AF647
B1: the IC50 turned out to be 5.7 nM with Rabbit SLIT2-N and 3.9 nM in the assay with Human SLIT2-N [1]. The same molecule returned an EC50 with Human SLIT2-N [2] of 9 nM.

For the origin of these results see patent US20210214414A1 (Pfizer, published 2021).
